The supplement of paper PMC9170038

Tested on: MS2 coat protein
Assay: apparent KD of MS2 coat protein; designed switch direction (-1 OFF switch, 1 ON switch): -1; higher = weaker reporter binding
Method in brief: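 Designed RNA switches sharing common flanks were transcribed on Illumina chips by stalled E. coli RNA polymerase. They were titrated with SNAP-549-labelled MS2 coat protein, from 0.7 or 1.5 nM doubling to 3 µM, in Tris-HCl pH 7.5 buffer with KCl, MgCl2, BSA, DTT, tRNA and Tween-20. Titrations ran without input, with 200 uM small-molecule ligand, or with an oligonucleotide input. The apparent KD of each design is the median over its clusters, after curve-fitting of normalised cluster fluorescence.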

[1] = input ligand: microRNA oligo, concentration not stated
[2] = Eterna round: R95, input ligand: FMN 200 uM
[3] = Eterna round: R95, input ligand: microRNA oligo, concentration not stated
[4] = Eterna round: R95, input ligand: none

| Sequence | apparent KD of MS2 coat protein (input ligand: FMN 200 uM) [nM] | apparent KD of MS2 coat protein [1] [nM] | apparent KD of MS2 coat protein (input ligand: none) [nM] | apparent KD of MS2 coat protein [2] [nM] | apparent KD of MS2 coat protein [3] [nM] | apparent KD of MS2 coat protein [4] [nM] |
| --- | --- | --- | --- | --- | --- | --- |
| GCGGGCUUGGGAGGAUAUACAUGAGGAUCACCCAUGUGUGUUCGGGCUGGCCGGUUUGGGCGCGUGUAGAAGGCUCGGGUUUGC [less GC, A 14%] (Eterna round: R96, puzzle: Exclusion NG 2) | 25.1 | 13.4 | 16.1 | – | – | – |
| GCUAAACAAGGAUAUACAUGAGGAUCACCCAUGUAGGCAUAGGGUGAAGCACGCCUAUGUAGAAGGUGUCCGCA [Eternabot (Original) Solution 34] (Eterna round: R97, puzzle: Exclusion 3) | 80.6 | – | 185 | – | – | – |
| GCUAGAGCAGGAUAUUCAAAACCUCACAUGAGGAUCACCCAUGUGGCCGAAAGGCCGGGAGGAGAAGGGCUCUAGC [Mat - Exclusion 5 - Eli mod - D84] (Eterna round: R96, puzzle: Exclusion 5) | 42.4 | 14.3 | 19.4 | – | – | – |
| GCUAGAGCAGGAUAUUCAAAACCUCACAUGAGGAUCACCCAUGUGGCCGAAAGGCCGGGAGGAGAAGGGCUCUAGC [Mat - Exclusion 5 - Eli mod - D84] (puzzle: Exclusion 5) | – | – | – | 41.6 | 15.1 | 17.2 |
| GCUAGAGCAGGAUAUUUAGAUCCUCACAUGAGGAUCACCCAUGUGGUCGAAAGACUAAGAAGAGAAGGGCUCUAGC [Omei Ex5 E21] (Eterna round: R97, puzzle: Exclusion 5) | 326 | – | 944 | – | – | – |
| GCUAGUCAUGUCAGGAUAUGCAGAUCCUUGGAUCUGCAGAAGGGACAUGAGGAUCACCCAUGUGCCUAACUAGC [Mat - Exclusion 4 - JL Mod - D14] (Eterna round: R97, puzzle: Brourd's mod of Exclusion 4) | 479 | – | 41.6 | – | – | – |
| GCUCGACAUGAGGAUCACCCAUGUCAGGAUAUCUUUGGAGGAGGCUUGCCGAUGAUAGAGAGAAGGGACAGGUA [Eternabot (L2) Solution 70] (Eterna round: R97, puzzle: Exclusion 1) | 26.7 | – | 22.4 | – | – | – |
| GCUGACAAGCUGGAGACAGCAGAGACAUGAGGAUCACCCAUGUAGGAUAUCGAUGCGAAAAGCAUCGAGAAGGGCAUAGUCAGC [exng3 v2 a] (Eterna round: R96, puzzle: Exclusion NG 3) | 13.1 | 9.71 | 17.2 | – | – | – |
| GCUGCGCGAGGAUAUGCGGUUUGCGCUGUGGCCCGUGGCGUACAUGAGGAUCACCCAUGUAGAAGGCGUGUGGG [Apr-15 SS2-55] (Eterna round: R96, puzzle: Exclusion 2) | 27.6 | 21.3 | 30.1 | – | – | – |
| GCUGCGCGAGGAUAUGCGGUUUGCGCUGUGGCCCGUGGCGUACAUGAGGAUCACCCAUGUAGAAGGCGUGUGGG [Apr-15 SS2-55] (puzzle: Exclusion 2) | – | – | – | – | 18.6 | – |
| GCUGGAAGAGGAUAUACAUAAGGUGCGUCAGCACCGGGCCUACAUGAGGAUCACCCAUGUAGAAGGCUUCCAGC [EX2 #78] (Eterna round: R97, puzzle: Exclusion 2) | 55.1 | – | 15.2 | – | – | – |
| GCUGGACAUGAGGAUCACCCAUGUGAGGAUAUCGGCUGGUACGUGUUGGCUGGCAUCUCGAGAAGGCACAUAGU [Exclusion 1 V63] (puzzle: Exclusion 1) | – | – | – | – | 28.2 | – |
| GCUGGUCAAGGAUAUACAUGAGGAUCACCCAUGUGAUUAGCAGUCCUCGGACUGCAAUGUAGAAGGUGACCAGC [E3/2-C1] (Eterna round: R97, puzzle: Exclusion 3) | 1410 | – | 308 | – | – | – |
| GCUGGUCGAGGAUAUGCAUUCGUGCUUCGGCACGUAAGGUCACAUGAGGAUCACCCAUGUAGAAGGUGACCAGC [E2/6-B1] (Eterna round: R97, puzzle: Exclusion 2) | 23.9 | – | 17.8 | – | – | – |
| GCUGUAGAAGGAUAUGCUUCGACUCACAUGAGGAUCACCCAUGUCUUCGUGCAGUCGUCUGCAGAAGGUCUCCAGU [EX5 C.8] (Eterna round: R97, puzzle: Exclusion 5) | 1820 | – | 504 | – | – | – |
| GCUUCCCAUGUGAGGAUAUGUAGGGUUAACCCGAGGCAGAAGGCACAUGAGGAUCACCCAUGUUAAAACUUCUA [Xecera] (puzzle: Brourd's mod of Exclusion 4) | – | – | – | – | 30.8 | – |
| GCUUGCGAAGUAAGGAUAUCGGUCCGAAAGGACUACGAGAAGGUACAUGAGGAUCACCCAUGUGCGAGCAGAAU [Mod of Zala 24 - Jieux - Brourd's mod of Exclusion 4] (Eterna round: R97, puzzle: Brourd's mod of Exclusion 4) | 19.6 | – | 23 | – | – | – |
| GCUUGGCGAGGAUAUACAUGAGGAUCACCCAUGUGAGAGAAGAAAGUGAGGAAGAAAAGUAGAAGGCGCUGAGG [Mat - Exclusion 3 - Mod of Salish D61] (puzzle: Exclusion 3) | – | – | – | 372 | 56.4 | 63 |
| GCUUGUAGAGGAUAUACAAGGGCCCGAGCGGCGAGAGCCGCACAUGAGGAUCACCCAUGUAGAAGGCUACUAUA [JL-ex2-4.21 ViennaUCT mod] (Eterna round: R97, puzzle: Exclusion 2) | 201 | – | 237 | – | – | – |
| GCUUUUCUUUUCCUUUCUUACAUGAGGAUCACCCAUGUUUCUUGUCGUGCUCGCGUUGUUCGUCUGUCUGUCUGUUG [salish99_TOv1_r3_081] (puzzle: Sensor v3, turn-off variant 1) | – | – | – | 37.4 | 35.5 | 47.6 |
| GGAAAACGCUGAGGAUAUGGAAGGAAAGGAAGACCAGAAGGCAGGGUCACACAACAUGAGGAUCACCCAUGUGUGUGUAGCGGA [exng1 ex3] (Eterna round: R96, puzzle: Exclusion NG 1) | 9.75 | 10.2 | 12.7 | – | – | – |
| GGAACGACAGGAUAUACAUGAGGAUCACCCAUGUAAAGAAGAGUAAAAUGUGAAAGCGGUAGAAGGGUCAAGAA [AK-MS2ROC-r4-exclusion3-6] (Eterna round: R97, puzzle: Exclusion 3) | 42.3 | – | 43.9 | – | – | – |
| GGAAGAAUGAGUAGUCCUCAUUGAAGAGAAUAGUAAGAAACAUGAGGAUCACCCAUGUAAGAACAAGCUUUUGCUCA [JR_Sv3TOV2_Sub003] (puzzle: Sensor v3, turn-off variant 2) | – | – | – | 227 | 85 | 179 |
| GGAAGAGAGAUAGGAUAUCAGAGGAAGAUGGUGAGAGAGACAUGAGGAUCACCCAUGUGAAGGAAUGAGAAGGGUCAGAAGGAA [EXNG2 V2 h] (Eterna round: R96, puzzle: Exclusion NG 2) | 130 | 133 | 101 | – | – | – |
| GGAAGGCGAGGAUAUACAAUGCCGGAAACGGCAGGCGUGAGACAUGAGGAUCACCCAUGUAGAAGGCGCGGAGA [AK-MS2ROC-r4-exclusion2-15] (Eterna round: R97, puzzle: Exclusion 2) | 101 | – | 105 | – | – | – |
